# T1: recombinant human vascular endothelial growth factor (hVEGF) 121 (human, UniProt P15692 27-147)
# T1 construct: mature; also called human VEGF-A121; hVEGF 121 isoform
# T1 sequence (looked up): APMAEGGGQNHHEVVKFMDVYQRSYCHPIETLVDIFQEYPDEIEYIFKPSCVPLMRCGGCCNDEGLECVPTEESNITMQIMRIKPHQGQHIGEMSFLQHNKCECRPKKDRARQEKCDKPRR
# Biological target: T1, recombinant human vascular endothelial …
# Assay: Fab-ELISA: Fab titrated on wells coated with 2 ug/mL hVEGF-121, detected with anti-kappa-light-chain-HRP; Kd estimated from EC50
# Excerpt: (§1) FIG. 4a-b. […] The bound Fabs were detected with anti-Kappa-light-chain-HRP-conjugated antibody (B).
row,Kd,Binder
1,33 nM,"FF0124-7 (Fab, V domains shown, also called FF0124-7 F2116) VH: EVQLVESGGGLVQPGGSLRLSCAASGFDLYYSYMHWVRQAPGKGLEWVASISSYSGYTSYADSVKGRFTISADTSKNTAYLQMNSLRAEDTAVYYCARGFYYGGWYGIDYWGQGTLVTVSS VL: DIQMTQSPSSLSASVGDRVTITCRASQSVSSAVAWYQQKPGKAPKLLIYSASSLYSGVPSRFSGSRSGTDFTLTISSLQPEDFATYYCQQHYGPITFGQGTKVEIK"
2,47 nM,"FF0124-2 (Fab, V domains shown, seventh Fab of the naive library selection; also called FF0124-2 F2083; FF0124 Fab # 2) VH: EVQLVESGGGLVQPGGSLRLSCAASGFDLYYSSMHWVRQAPGKGLEWVASISPSSSYTYYADSVKGRFTISADTSKNTAYLQMNSLRAEDTAVYYCARYYWWHSPFWAYSGLDYWGQGTLVTVSS VL: DIQMTQSPSSLSASVGDRVTITCRASQSVSSAVAWYQQKPGKAPKLLIYSASSLYSGVPSRFSGSRSGTDFTLTISSLQPEDFATYYCQQSGPLFTFGQGTKVEIK"

# Biological target: T2, recombinant human VEGF 165 isoform (human, UniProt P15692 27-191)
# T2 construct: mature
# T2 sequence (P15692 other isoform, or with tags, fused parts or gaps): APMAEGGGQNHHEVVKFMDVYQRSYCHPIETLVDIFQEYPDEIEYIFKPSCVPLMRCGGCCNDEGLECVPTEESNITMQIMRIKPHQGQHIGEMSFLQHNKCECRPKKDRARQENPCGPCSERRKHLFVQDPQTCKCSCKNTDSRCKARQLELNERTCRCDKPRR
# Assay: competitive ELISA in solution, 10 pM hVEGF-165, free VEGF read with Quantikine kit
# Excerpt: Kd calculated from the data fitted with a 5 parameter asymmetric model with Prism software.
row,Kd,Binder
1,0.062 nM,"Variant 205 (Fab variant of Clone #201) (Fab, V domains shown) VH: EVQLVESGGGLVQPGGSLRLSCAASGFDLFHYSIHWVRQAPGKGLEWVAYIYPSYGYTYYADSVKGRFTISADTSKNTAYLQMNSLRAEDTAVYYCARHAWYYGWGLDYWGQGTLVTVSS VL: DIQMTQSPSSLSASVGDRVTITCRASQAAYGRVAWYQQKPGKAPKLLIYKDSELYAGVPSRFSGSRSGTDFTLTISSLQPEDFATYYCQQRGWYLFTFGQGTKVEIKR"
2,0.028 nM,"Variant 209 (Fab variant of Clone #201) (Fab, V domains shown) VH: EVQLVESGGGLVQPGGSLRLSCAASGFDLFHYSIHWVRQAPGKGLEWVAYIYPSYGYTYYADSVKGRFTISADTSKNTAYLQMNSLRAEDTAVYYCARHAWYYGWGLDYWGQGTLVTVSS VL: DIQMTQSPSSLSASVGDRVTITCRASQDAAYGRVAWYQQKPGKAPKLLIYKASELYAGVPSRFSGSRSGTDFTLTISSLQPEDFATYYCQQRGWYLFTFGQGTKVEIKR"
3,0.026 nM,"Variant 220 (Fab variant of Clone #201) (Fab, V domains shown) VH: EVQLVESGGGLVQPGGSLRLSCAASGFDLFHYSIHWVRQAPGKGLEWVAYIYPSYGYTYYADSVKGRFTISADTSKNTAYLQMNSLRAEDTAVYYCARHAWYYGWGLDYWGQGTLVTVSS VL: DIQMTQSPSSLSASVGDRVTITCRASQAAYGDVAWYQQKPGKAPKLLIYKASELYAGVPSRFSGSRSGTDFTLTISSLQPEDFATYYCQQRGWYLFTFGQGTKVEIKR"
4,1.28 nM,"Variant 212 (Fab variant of Clone #201) (Fab, V domains shown) VH: EVQLVESGGGLVQPGGSLRLSCAASGFDLFHYSIDWVRQAPGKGLEWVAYIYPSYGYTYYADSVKGRFTISADTSKNTAYLQMNSLRAEDTAVYYCARHAWYYGWGLDYWGQGTLVTVSS VL: DIQMTQSPSSLSASVGDRVTITCRASQAAYGRVAWYQQKPGKAPKLLIYKASELYAGVPSRFSGSRSGTDFTLTISSLQPEDFATYYCQQRGWYLFTFGQGTKVEIKR"
5,0.027 nM,"Variant 215 (Fab variant of Clone #201) (Fab, V domains shown) VH: EVQLVESGGGLVQPGGSLRLSCAASGFDLFDYSIHWVRQAPGKGLEWVAYIYPSYGYTYYADSVKGRFTISADTSKNTAYLQMNSLRAEDTAVYYCARHAWYYGWGLDYWGQGTLVTVSS VL: DIQMTQSPSSLSASVGDRVTITCRASQAAYGRVAWYQQKPGKAPKLLIYKASELYAGVPSRFSGSRSGTDFTLTISSLQPEDFATYYCQQRGWYLFTFGQGTKVEIKR"
6,0.014 nM,"Variant 206 (Fab variant of Clone #201) (Fab, V domains shown, also called SI; No. 3) VH: EVQLVESGGGLVQPGGSLRLSCAASGFDLFHYSIHWVRQAPGKGLEWVAYIYPSYGYTYYADSVKGRFTISADTSKNTAYLQMNSLRAEDTAVYYCARHAWYYGWGLDYWGQGTLVTVSS VL: DIQMTQSPSSLSASVGDRVTITCRASQAAYGRVAWYQQKPGKAPKLLIYDASELYAGVPSRFSGSRSGTDFTLTISSLQPEDFATYYCQQRGWYLFTFGQGTKVEIKR"
7,0.091 nM,"Variant 213 (Fab variant of Clone #201) (Fab, V domains shown) VH: EVQLVESGGGLVQPGGSLRLSCAASGFDLFHYDIHWVRQAPGKGLEWVAYIYPSYGYTYYADSVKGRFTISADTSKNTAYLQMNSLRAEDTAVYYCARHAWYYGWGLDYWGQGTLVTVSS VL: DIQMTQSPSSLSASVGDRVTITCRASQAAYGRVAWYQQKPGKAPKLLIYKASELYAGVPSRFSGSRSGTDFTLTISSLQPEDFATYYCQQRGWYLFTFGQGTKVEIKR"
8,0.012 nM,"Variant 219 (Fab variant of Clone #201) (Fab, V domains shown, also called SI; No. 9) VH: EVQLVESGGGLVQPGGSLRLSCAASGFDLFHYSIHWVRQAPGKGLEWVAYIYPSYGYTYYADSVKGRFTISADTSKNTAYLQMNSLRAEDTAVYYCARHAWYYGWGLDYWGQGTLVTVSS VL: DIQMTQSPSSLSASVGDRVTITCRASQAAYDRVAWYQQKPGKAPKLLIYKASELYAGVPSRFSGSRSGTDFTLTISSLQPEDFATYYCQQRGWYLFTFGQGTKVEIKR"

# Biological target: T1, recombinant human vascular endothelial …
# Assay: Fab-ELISA: Fab titrated on wells coated with 2 ug/mL hVEGF-121, detected with anti-kappa-light-chain-HRP
# Excerpt: as §1
row,EC50 (read off the curve),Binder
1,~30 nM,"FF0124-7 (Fab, V domains shown, also called FF0124-7 F2116) VH: EVQLVESGGGLVQPGGSLRLSCAASGFDLYYSYMHWVRQAPGKGLEWVASISSYSGYTSYADSVKGRFTISADTSKNTAYLQMNSLRAEDTAVYYCARGFYYGGWYGIDYWGQGTLVTVSS VL: DIQMTQSPSSLSASVGDRVTITCRASQSVSSAVAWYQQKPGKAPKLLIYSASSLYSGVPSRFSGSRSGTDFTLTISSLQPEDFATYYCQQHYGPITFGQGTKVEIK"
2,~50 nM,"FF0124-2 (Fab, V domains shown, seventh Fab of the naive library selection; also called FF0124-2 F2083; FF0124 Fab # 2) VH: EVQLVESGGGLVQPGGSLRLSCAASGFDLYYSSMHWVRQAPGKGLEWVASISPSSSYTYYADSVKGRFTISADTSKNTAYLQMNSLRAEDTAVYYCARYYWWHSPFWAYSGLDYWGQGTLVTVSS VL: DIQMTQSPSSLSASVGDRVTITCRASQSVSSAVAWYQQKPGKAPKLLIYSASSLYSGVPSRFSGSRSGTDFTLTISSLQPEDFATYYCQQSGPLFTFGQGTKVEIK"

# Biological target: T1, recombinant human vascular endothelial …
# Assay: SPR, off rate of hVEGF-121 binding
row,koff,Binder
1,0.000168 s⁻¹,"FF03033-5 (Fab, V domains shown, fifth generation Fab from the library based on FF0117-A5) VH: EVQLVESGGGLVQPGGSLRLSCAASGFDLFHYSIHWVRQAPGKGLEWVAYIYPSYGYTYYADSVKGRFTISADTSKNTAYLQMNSLRAEDTAVYYCARHAWYYGWGLDYWGQGTLVTVSS VL: DIQMTQSPSSLSASVGDRVTITCRASQGVGERVAWYQQKPGKAPKLLIYNASHLAGVPSRFSGSRSGTDFTLTISSLQPEDFATYYCQQRGWYLFTFGQGTKVEIK"
2,0.000236 s⁻¹,"FF03033-2 (Fab, V domains shown, fifth generation Fab from the library based on FF0117-A5) VH: EVQLVESGGGLVQPGGSLRLSCAASGFDLFHYSIHWVRQAPGKGLEWVAYIYPSYGYTYYADSVKGRFTISADTSKNTAYLQMNSLRAEDTAVYYCARHAWYYGWGLDYWGQGTLVTVSS VL: DIQMTQSPSSLSASVGDRVTITCRASQVAFYNVAWYQQKPGKAPKLLIYDASILNGVPSRFSGSRSGTDFTLTISSLQPEDFATYYCQQRGWYLFTFGQGTKVEIK"
3,0.000284 s⁻¹,"FF03033-6 (Fab, V domains shown, fifth generation Fab from the library based on FF0117-A5) VH: EVQLVESGGGLVQPGGSLRLSCAASGFDLFHYSIHWVRQAPGKGLEWVAYIYPSYGYTYYADSVKGRFTISADTSKNTAYLQMNSLRAEDTAVYYCARHAWYYGWGLDYWGQGTLVTVSS VL: DIQMTQSPSSLSASVGDRVTITCRASQPREDRVAWYQQKPGKAPKLLIYRASTLAGVPSRFSGSRSGTDFTLTISSLQPEDFATYYCQQRGWYLFTFGQGTKVEIK"
4,< 1e-06 s⁻¹,"FF03033-8 (Fab, V domains shown, fifth generation Fab with one residue deleted near the end of CDR-L2; the text says FF03046-2 was made from it by putting the tyrosine back) VH: EVQLVESGGGLVQPGGSLRLSCAASGFDLFHYSIHWVRQAPGKGLEWVAYIYPSYGYTYYADSVKGRFTISADTSKNTAYLQMNSLRAEDTAVYYCARHAWYYGWGLDYWGQGTLVTVSS VL: DIQMTQSPSSLSASVGDRVTITCRASQAAYGRVAWYQQKPGKAPKLLIYKASELAGVPSRFSGSRSGTDFTLTISSLQPEDFATYYCQQRGWYLFTFGQGTKVEIK"
5,< 1e-06 s⁻¹,"FF03033-4 (Fab, V domains shown, fifth generation Fab with one residue deleted near the end of CDR-L2; the text says FF03046-1 was made from it by putting the tyrosine back) VH: EVQLVESGGGLVQPGGSLRLSCAASGFDLFHYSIHWVRQAPGKGLEWVAYIYPSYGYTYYADSVKGRFTISADTSKNTAYLQMNSLRAEDTAVYYCARHAWYYGWGLDYWGQGTLVTVSS VL: DIQMTQSPSSLSASVGDRVTITCRASQEGWDRVAWYQQKPGKAPKLLIYSASQLAGVPSRFSGSRSGTDFTLTISSLQPEDFATYYCQQRGWYLFTFGQGTKVEIK"
6,0.000146 s⁻¹,"FF03033-3 (Fab, V domains shown, fifth generation Fab from the library based on FF0117-A5) VH: EVQLVESGGGLVQPGGSLRLSCAASGFDLFHYSIHWVRQAPGKGLEWVAYIYPSYGYTYYADSVKGRFTISADTSKNTAYLQMNSLRAEDTAVYYCARHAWYYGWGLDYWGQGTLVTVSS VL: DIQMTQSPSSLSASVGDRVTITCRASQFVGYNVAWYQQKPGKAPKLLIYQASSLAGVPSRFSGSRSGTDFTLTISSLQPEDFATYYCQQRGWYLFTFGQGTKVEIK"

# From patent publication US20220235123A1 (UNIVERSITY OF TORONTO, published 2022)
